According to patent publication US20150232546A1 (THROMBOGENICS, published 2015):
Like-named read-outs stand apart in the source and are kept apart here. Ends that are not written are not given here. * marks the point of attachment. Biotin = O=C1N[C@H]2[C@H](CS[C@H]2CCCCC(=O)*)N1

T1: human PDGF-C peptide no. 27 (human)
T1 peptide: Biotin-EPGFCIHYNIVMPQF

T2: human PDGF-C peptide no. 9 (human)
T2 peptide: Biotin-FPHTYPRNTVLVWRL

T3: human PDGF-C peptide no. 58 (human)
T3 peptide: Biotin-VLQLRPKTGVRGLHK


Columns and labels:
[1] = biological target: T1, human PDGF-C peptide no. 27; test: peptide ELISA, signal to background >3
Procedure: (§1) The indicated peptides where synthesized in an N-terminally biotinylated form and coated onto a neutravidin plate (Thermo Scientific, Cat. 15127) at a concentration of 10 μg/mL. […] Each antibody was tested at least twice, and up to 4 times. A “+” in the table indicate that a signal to background >3 was found and confirmed at least once. The background signal was measured in the absence of peptide using both the primary and the secondary antibodies.

[2] = biological target: T2, human PDGF-C peptide no. 9; test: peptide ELISA, signal to background >3
Procedure: as §1

[3] = biological target: T3, human PDGF-C peptide no. 58; test: peptide ELISA, signal to background >3
Procedure: as §1

[4] = biological target: T4, Recombinant human PDGF-C from R&D Systems (1687-CC/CF; Val235-Gly345) (human, UniProt Q9NRA1 235-345); test: cell-based or functional assay
[5] = biological target: T4, Recombinant human PDGF-C from R&D …; test: SPR (Biacore 3000), antibody amine-coupled to CM5 chip, PDGF-C injected, 1:1 fit
Procedure: (§2) The different antibodies were each separately coated to a CM5 chip at a density of 1680 RU using standard amine chemistry. Different concentrations (200, 175, 150, 125, 100, 75, 50, 25, 12.5, 6.25, 3.125 & 0 nM) of PDGF-C (R&D Systems, Cat. 1687-CC/CF) were injected over the coated antibody for 5 min, then buffer was flowed for 10 min to monitor the dissociation of the captured antigen. The surface was regeneration between each run with a single injection of glycine-HCl, pH 2.5. Affinities were obtained by analyzing the sensorgrams with the help of the BIAevaluation 4.1 software assuming a 1:1 interaction. The experiment was performed with a Biacore 3000 instrument.

[6] = biological target: T4, Recombinant human PDGF-C from R&D …; test: cell-based or functional assay; remark: listed apart in the source
[7] = biological target: T4, Recombinant human PDGF-C from R&D …; test: cell-based or functional assay; remark: listed apart in the source
[8] = biological target: T4, Recombinant human PDGF-C from R&D …; test: SPR as in Example 3
Procedure: as §2
The affinity of the above-listed exemplary humanized anti-PDGF-C antibodies for PDGF-C was analysed (as in Example 3) and the humanized antibodies were subsequently assessed in the in vitro bioassay described in Example 4. A technical problem with the (preparation of) humanized antibody 5H7 may explain why this antibody is apparently not inhibiting activation of PDGFR-α although it is still binding with high affinity to PDGF-C; this is under further investigation.

[9] = biological target: T4, Recombinant human PDGF-C from R&D …; test: cell-based or functional assay; remark: listed apart in the source

T4 sequence (Q9NRA1 235-345 limits assumed, form in doubt): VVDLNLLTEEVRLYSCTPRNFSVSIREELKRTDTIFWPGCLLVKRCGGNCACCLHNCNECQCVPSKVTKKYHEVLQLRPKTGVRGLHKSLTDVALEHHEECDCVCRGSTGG

| Binder | binding result [1] | binding result [2] | binding result [3] | % PDGF-Rα activation by PDGF-C allowed at 1.85 µg/mL antibody (100% = no antibody) [4] | Kd [5] | IC50 value (nM), PathHunter PDGFRα assay [6] | % PDGFRα activation in the PathHunter PDGFRα assay at 5.56 µg/ml antibody with PDGF-CC at EC80 (no Ab with PDGF-CC = 100, no Ab without PDGF-CC = 24) [7] | % PDGFRα activation in the PathHunter PDGFRα assay at 16.67 µg/ml antibody with PDGF-CC at EC80 (no Ab with PDGF-CC = 100, no Ab without PDGF-CC = 24) [7] | % PDGFRα activation in the PathHunter PDGFRα assay at 50 µg/ml antibody with PDGF-CC at EC80 (no Ab with PDGF-CC = 100, no Ab without PDGF-CC = 24) [7] | Kd [8] | IC50 value (nM), PathHunter PDGFRα assay [9] |
| --- | --- | --- | --- | --- | --- | --- | --- | --- | --- | --- | --- |
| anti-PDGF-C antibody 5A2 (antibody, IgG2b, V domains shown, Mouse monoclonal from hybridoma, IgG2b, kappa; also called mAb 5A2; hybridoma LMBP 9484CB) VH: EVQLVESGGDLVKPGGSLKLSCAASGFTFSNYGMSWVRQTPDKRLEWVATIGSGGHYTYYPDSVKGRFTISRDSAKSTLYLQMSSLKSEDTAIYYCARQAPLWDCSDYWGQGTTLTVSS VL: DVLMTQTPLSLPVSLGDQASISCRSNQSIVHSNGDTYLEWYLQKPGQSPKLLIYKVSNRFSGVPDRFSGSGSGTDFTLKISRVEAEDLGVYYCFQGSHVPPTFGGGTKLEIK | binds | binds | binds | 30% | 5 nM | 3.36 nM | 20% | 17% | 18% | – | – |
| anti-PDGF-C antibody 2D3 (antibody, IgG1, V domains shown, Mouse monoclonal from hybridoma, IgG1, kappa; also called mAb 2D3; hybridoma LMBP 9483CB) VH: EVQLVESGGDLVKPGGSLKLSCAASGFTFSNYGMSWVRQTPDKRLEWVATIGSGGSYTYYPDSVKGRFTISRDSAKNTLYLQMSSLKSEDTAMYYCARQAPLWDYSDYWGQGTTLTVSS VL: DVLMTQTPLSLPVSLGDQASISCRSNQTIVHSNGDTYLEWYLQKPGQSPNLLIYKVSNRFSGVPDRFSGSGSGTDFTLKISRVEAEDLGVYYCFQGSHVPPTFGGGTKLEIK | – | – | – | 49% | 1.5 nM | 7.47 nM | 32% | 24% | 23% | – | – |
| anti-PDGF-C antibody 16B1 (antibody, IgG1, V domains shown, Mouse monoclonal from hybridoma, IgG1, kappa; VH same as 2D3, VL same as 5A2; also called mAb 16B1; hybridoma LMBP 9486CB) VH: EVQLVESGGDLVKPGGSLKLSCAASGFTFSNYGMSWVRQTPDKRLEWVATIGSGGSYTYYPDSVKGRFTISRDSAKNTLYLQMSSLKSEDTAMYYCARQAPLWDYSDYWGQGTTLTVSS VL: DVLMTQTPLSLPVSLGDQASISCRSNQSIVHSNGDTYLEWYLQKPGQSPKLLIYKVSNRFSGVPDRFSGSGSGTDFTLKISRVEAEDLGVYYCFQGSHVPPTFGGGTKLEIK | – | – | – | 38% | 1.2 nM | 8.38 nM | 24% | 23% | 20% | – | – |
| anti-PDGF-C antibody 29H1 (antibody, IgG1, V domains shown, Mouse monoclonal from hybridoma, IgG1, kappa; also called mAb 29H1; hybridoma LMBP 9487CB) VH: EVQLVESGGDLVKPGGSLKLSCAASGFTFSNYGMSWVRQTPDKRLEWVATIGSGGHYTYYPDSVKGRFTISRDSAKSTLYLQMSSLRSDDTAIYYCARQAPLWDCSDYWGQGTTLTVSS VL: DVLMTQTPLSLPVSLGDQASISCRSNQSIVHSNGDTYLEWYLQKPGQSPNLLIYKVSNRFSGVPDRFSGSGSGTDFTLKISRVEAEDLGVYYCFQGSHVPPTFGGGTKLEIK | – | – | binds | 23% | 1.5 nM | – | 22% | 21% | 22% | – | – |
| anti-PDGF-C antibody 5H7 (antibody, IgG1, V domains shown, Mouse monoclonal from hybridoma, IgG1, kappa; also called mAb 5H7; hybridoma LMBP 9485CB) VH: EVQLVESGGDLVKPGGSLKLSCAASGFTFSSYGMSWVRQTPDKRLEWVATIGYGGSFTYYPDSMKGRFTISRDNAKNTLFLQMSSLKSEDTAIYYCVRQAPLWDYFDYWGQGTTLTVSS VL: DVLMTQTPLSLPVSLGDQASISCRSSQTIVHSDGTTYLEWYLQKAGQSPKLLIYKVSNRFSGVPDRFSGSGSGTDFTLKISRVEAEDLGVYYCFQGSHVPPTFGGGTKLEIK | – | – | binds | 32% | 2.5 nM | 5.57 nM | 24% | 22% | 22% | – | – |
| recombinant human PDGFRα Fc chimera (6765-PR from R&D Systems) (Fc fusion, not shown: a dimerising Fc or GST) QLSLPSILPNENEKVVQLNSSFSLRCFGESEVSWQYPMSEEESSDVEIRNEENNSGLFVTVLEVSSASAAHTGLYTCYYNHTQTEENELEGRHIYIYVPDPDVAFVPLGMTDYLVIVEDDDSAIIPCRTTDPETPVTLHNSEGVVPASYDSRQGFNGTFTVGPYICEATVKGKKFQTIPFNVYALKATSELDLEMEALKTVYKSGETIVVTCAVFNNEVVDLQWTYPGEVKGKGITMLEEIKVPSIKLVYTLTVPEATVKDSGDYECAARQATREVKEMKKVTISVHEKGFIEIKPTFSQLEAVNLHEVKHFVVEVRAYPPPRISWLKNNLTLIENLTEITTDVEKIQEIRYRSKLKLIRAKEEDSGHYTIVAQNEDAVKSYTFELLTQVPSSILDLVDDHHGSTGGQTVRCTAEGTPLPDIEWMICKDIKKCNNETSWTILANNVSNIITEIHSRDRSTVEGRVTFAKVEETIAVRCLAKNLLGAENRELKLVAPTLRSEIEGRMD | – | – | – | – | – | 0.65 nM | – | – | – | – | – |
| Humanized 5H7 anti-PDGF-C antibody (antibody, V domains shown, also called humanized mAb 5H7) VH: EVQLLESGGGLVQPGGSLRLSCAASGFTFSSYGMSWVRQTPGKGLEWVATIGYGGSFTYYPDSMKGRFTISRDNAKNTLYLQMNSLRAEDTAVYYCARQAPLWDYFDYWGQGTLLTVSS VL: DVVMTQSPLSLPVTLGQPASISCRSSQTIVHSDGTTYLEWYLQKPGQSPRLLIYKVSNRFSGVPDRFSGSGSGTDFTLKISRVEAEDVGVYYCFQGSHVPPTFGQGTKLEIK | – | – | – | – | – | – | – | – | – | 2.5 nM | – |
| Humanized 16B1 anti-PDGF-C antibody (antibody, V domains shown, also called humanized mAb 16B1) VH: EVQLLESGGGLVQPGGSLRLSCAASGFTFSNYGMSWVRQTPGKGLEWVATIGSGGSYTYYPDSVKGRFTISRDNAKNTLYLQMNSLRAEDTAVYYCARQAPLWDYSDYWGQGTLLTVSS VL: DVVMTQSPLSLPVTLGQPASISCRSNQSIVHSNGDTYLEWYLQKPGQSPRLLIYKVSNRFSGVPDRFSGSGSGTDFTLKISRVEAEDVGVYYCFQGSHVPPTFGQGTKLEIK | – | – | – | – | – | – | – | – | – | 0.8 nM | 4.97 nM |
